Reference: publication PMC3739435 (Peptides, 2013)
Each block holds one binder with its values, some of them ahead of it. Square brackets hold non-standard residues; d marks the D form. Ends that are not written are not given here. * marks the point of attachment. Benzoyl(4-benzoyl) = O=C(c1ccccc1)c1ccc(C(=O)*)cc1; Bpa = N[C@@H](Cc1ccc(C(=O)c2ccccc2)cc1)C(=O)O; Phe(NO2) = nitro-phenylalanine (NO2-Phe); Desaminotyrosyl = O=C(CCc1ccc(O)cc1)*; Nle = CCCC[C@H](N)C(=O)O

Experiments:
[1] = target: T1, hemagglutinin-tagged wild type human type 2 CCK receptor (human, UniProt P32239 1-447); test: cell-based or functional assay
T1 sequence (looked up): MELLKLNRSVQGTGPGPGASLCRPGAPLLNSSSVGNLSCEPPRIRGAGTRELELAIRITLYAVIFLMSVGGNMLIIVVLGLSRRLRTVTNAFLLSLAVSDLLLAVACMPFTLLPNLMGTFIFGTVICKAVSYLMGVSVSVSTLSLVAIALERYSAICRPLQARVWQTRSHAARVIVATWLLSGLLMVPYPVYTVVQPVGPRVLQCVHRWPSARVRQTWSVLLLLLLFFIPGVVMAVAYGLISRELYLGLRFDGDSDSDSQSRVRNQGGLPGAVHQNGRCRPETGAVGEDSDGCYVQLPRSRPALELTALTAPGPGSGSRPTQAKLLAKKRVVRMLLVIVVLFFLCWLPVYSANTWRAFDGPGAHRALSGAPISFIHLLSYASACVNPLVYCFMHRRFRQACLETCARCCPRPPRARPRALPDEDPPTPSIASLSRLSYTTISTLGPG

[2] = target: T1, hemagglutinin-tagged wild type human …; test: radioligand binding

B3: (des-amino-Tyr)-Gly-[(Nle28,Bpa30,Nle31)CCK-26-33] (peptide)
chain: [Desaminotyrosyl]GDY[Nle]G[Bpa][Nle]DF
modifications: ends and bridges not checked
- IC50 [2]: > 1 µM

B4: (des-amino-Tyr)-Gly-[(Nle28,Nle31,Bpa32)CCK-26-33] (peptide)
chain: [Desaminotyrosyl]GDY[Nle]GW[Nle][Bpa]F
modifications: ends and bridges not checked
- intracellular calcium responses in CHO-CCK2R cells, EC50 [1]: > 1 µM
- IC50 [2]: > 1 µM

Other lines, results leading:

- intracellular calcium responses in CHO-CCK2R cells, EC50 [1]: > 1 µM
B1: (des-amino-Tyr)-Gly-[(NO2-Phe26,Nle28,Nle31)CCK-26-33] (peptide)
chain: [Desaminotyrosyl]G[Phe(NO2)]Y[Nle]GW[Nle]DF
modifications: ends and bridges not checked

- IC50 [2]: > 1 µM
B2: (des-amino-Tyr)-Gly-[(Nle28,(BzBz)Lys31)CCK-26-33] (peptide)
chain: [Desaminotyrosyl]GDY[Nle]GWK(Benzoyl(4-benzoyl))DF
modifications: ends and bridges not checked
